Here are results for one molecule from PMC9628480, “Discovery and structural characterization of chicoric acid as a SARS-CoV-2 nucleocapsid protein ligand and RNA binding disruptor”.

One series has as its target N protein NTD (SARS-CoV-2, UniProt A0A6B9VLF5 43-174). The experiment in a line: fluorescence polarization. Particulars: protein: recombinant; tags: SUMO tag (pET-SUMO) cleaved; label: 5'-FITC; hairpin. (In general: Fluorescence polarisation rises when a labelled molecule tumbles more slowly, as on binding a larger partner.)
In a further series the target is N protein CTD (SARS-CoV-2, UniProt A0A6B9VLF5 250-364). Briefly: fluorescence polarization. The note with it: protein: recombinant; tags: SUMO tag (pET-SUMO) cleaved; chain copies: 2; label: 5'-FITC; hairpin.

Take CACUCACUGUCUUUUUUGAUGGUAGAGU (structured_RNA) [RNA1]: the binding result with N protein NTD and in the series with N protein CTD was “no binding” each time.
